In paper PMC11256756:

Legend:
Test in all cases: potentiometry
Conditions in all cases: 298 K, stated as 40 mM (SDS), 4 mM HClO4, no buffer
Lys14 (position 14, …) = target: Lys14 (position 14, …)
[1] = target: Nterm1 (position 1, -----FFHHIF)
[2] = target: Nterm1 (position 1, -----FIHHIF)
[3] = 1:1 Zn(II) complex (Zn bound by three His imidazoles; N-terminus and Lys not coordinated)

Row | Protein | pKa (Lys14 (position 14, …); 1:1 Cu(II) complex, ATCUN 4N square-planar binding (N-terminal amine, two amides, His3 imidazole)) | pKa (Lys14 (position 14, …); [3]) | pKa (Lys14 (position 14, …); metal-free peptide) | pKa [1, 3] | pKa ([1]; metal-free peptide) | pKa [2, 3] | pKa ([2]; metal-free peptide)
1 | FFHHIFRGIVHVGKTIHRLVTG [Piscidin 1 (Morone saxatilis x Morone chrysops (hybrid striped bass))] | 9.82 | 10.09 | 10.02 | 7.88 | 8.36 |  | 
2 | FFHHIFRGIVHVGKTIHKLVTG [Piscidin 2 (Morone saxatilis x Morone chrysops (hybrid striped bass))] |  |  |  | 8.04 | 8.82 |  | 
3 | FIHHIFRGIVHAGRSIGRFLTG [Piscidin 3 (Morone saxatilis x Morone chrysops (hybrid striped bass))] |  |  |  |  |  | 7.29 | 8.26
